Measurements reported in the supplement of paper PMC9732359.
± gives the uncertainty stated by the source.

Experiment: protein stability index of a GFP-peptide fusion (yeast GPS) (PSI 1-4); higher = more stable; sorted into four equal gates, so the index is relative within each strain
Summary of the method: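 The protein stability index combines read frequencies across sorting gates, each weighted by its gate number and then summed. To obtain those frequencies, a pooled yeast library of GFP fusions to tiled 17-residue yeast protein peptides, on a plasmid also expressing Cherry, was grown to mid-log phase in leucine-free medium. The cells were sorted into four equal gates by GFP/Cherry ratio before plasmid amplification by PCR and Illumina sequencing.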

Row | Sequence | protein stability index (doa10∆) | protein stability index (pdr5∆) | protein stability index (ubr1∆) | protein stability index (san1∆)
1 | KSHKQTIVTGGGSGNGD [RPP1] | 3.15 ± 0.27 | 3.55 ± 0.15 | 3.44 ± 0.2 | –
2 | DIQAMCTEAGLLALRER [RPT2] | 2.65 ± 0.088 | 3.33 ± 0.12 | 3.26 ± 0.055 | 3.33 ± 0.047
3 | RFKYAPGTIVLYAERVQ [RPS3] | 1.61 ± 0.072 | 1.65 ± 0.062 | 1.84 ± 0.093 | 1.56 ± 0.1
4 | TPLQSQLNLNNLTPANI [PGD1] | 2.98 ± 0.064 | 3.11 ± 0.053 | 3.01 ± 0.04 | 2.99 ± 0.039
5 | IPDLSIQNDIYLNDLMI [RPN12] | 2.99 ± 0.046 | 3.06 ± 0.042 | 3.02 ± 0.046 | 2.99 ± 0.044
6 | NRKRIVTLRKSLYTNTS [RPL3] | 2.66 ± 0.069 | 2.27 ± 0.065 | 1.73 ± 0.076 | 1.66 ± 0.087
7 | VLAHRIGLVPLKVDPDM [RPC40] | 2.94 ± 0.27 | – | – | –
8 | TANATANVNASAMPAPY [DSN1] | 3.11 ± 0.042 | 3.17 ± 0.037 | 3.1 ± 0.034 | 3.083 ± 0.029
9 | IDDANVTRKQEDARRNP [RPC37] | 1.45 ± 0.15 | 1.8 ± 0.081 | 2.01 ± 0.1 | 2.06 ± 0.13
10 | KTKLWGFKWLNKLDEYH [LIN1] | – | – | 3.22 ± 0.2 | –
11 | SSFEENNDLESVSMLLQ [RRI2] | 2.98 ± 0.071 | 3.23 ± 0.063 | 3.13 ± 0.039 | 3 ± 0.048
12 | SLGIAQPKGVILYGPPG [RPT6] | 2.71 ± 0.061 | 2.89 ± 0.072 | 2.91 ± 0.077 | 2.77 ± 0.089
13 | LNDMNTEISGLKNVNKR [SMC3] | 3.26 ± 0.064 | 3.27 ± 0.072 | 3.12 ± 0.045 | 3.06 ± 0.058
14 | ITIQLTRDVEPENLQVT [BRR2] | 2.79 ± 0.083 | 3.04 ± 0.13 | 2.85 ± 0.078 | –
15 | NGSEKVLIAQERSAGNI [RPB2] | 3.1 ± 0.17 | 3.44 ± 0.21 | 3.06 ± 0.061 | 3.12 ± 0.12
16 | LHCCIQLLMGDIPELSF [RPN3] | 1.71 ± 0.048 | 1.73 ± 0.052 | 1.71 ± 0.042 | 1.78 ± 0.065
17 | RVVVPQALRVLRLKPGR [RPL16B] | 1.24 ± 0.087 | 1.58 ± 0.06 | 1.77 ± 0.1 | 1.36 ± 0.12
18 | VFLSNLVETCLNDLVES [BRR2] | 1.41 ± 0.05 | 1.98 ± 0.04 | 1.89 ± 0.039 | 1.57 ± 0.11
19 | QIYTQRAYMRPLGVILT [SCL1] | 1.8 ± 0.053 | 1.38 ± 0.06 | 1.64 ± 0.036 | 1.43 ± 0.12
20 | GVSISVSFNSKQNEQLH [SMC3] | 1.87 ± 0.064 | 2.01 ± 0.065 | 2.35 ± 0.11 | 2.7 ± 0.13
21 | FDEGTTLLSPKDNGMLI [RPO21] | 2.7 ± 0.066 | 2.45 ± 0.067 | 1.96 ± 0.065 | 2.91 ± 0.061
22 | ERVMKNKVEENLEGLYL [RPT2] | 3.12 ± 0.11 | 3.28 ± 0.067 | 3.35 ± 0.12 | 3.07 ± 0.14
23 | PAFTFGAQKDNEKKTEE [YJL041W/NSP1] | 3.35 ± 0.2 | 2.64 ± 0.28 | 3.46 ± 0.2 | 3.11 ± 0.26
24 | MQNSKVESVCQKLDILV [SMC4] | 2.26 ± 0.065 | 2.13 ± 0.059 | 1.87 ± 0.056 | 2.3 ± 0.088
25 | VPRLFDLVKPKNPKFSN [SMC4] | 2.54 ± 0.052 | 2.62 ± 0.061 | 2.81 ± 0.052 | 2.45 ± 0.091
26 | DILLRLCVLWDDLQSSV [YCG1] | 1.65 ± 0.067 | 1.4 ± 0.051 | 2.11 ± 0.07 | 1.72 ± 0.087
27 | PKYIDELKTRDATNTSY [SWP82] | 2.68 ± 0.095 | 3.12 ± 0.072 | 2.94 ± 0.05 | 2.58 ± 0.079

Row | Sequence | protein stability index (doa10∆) | protein stability index (pdr5∆) | protein stability index (ubr1∆) | protein stability index (san1∆)
28 | GGKIINKLGNDPSLNLK [BRR2] | 2.27 ± 0.059 | 1.76 ± 0.073 | 2.16 ± 0.057 | 1.91 ± 0.072
29 | EQNSSSAKPSQIPTVSS [SIR4] | 2.99 ± 0.062 | 2.97 ± 0.051 | 3.04 ± 0.05 | 2.97 ± 0.048
30 | RVIIQELRFPSPTPIQR [PRP28] | 2.57 ± 0.15 | 2.58 ± 0.15 | – | 2.41 ± 0.14
31 | QMMARMAQTATQQQPGA [SRP54] | 2.34 ± 0.059 | 2.36 ± 0.067 | 2.27 ± 0.044 | 2.35 ± 0.067
32 | AKICALLFFNFSHSLTT [NUT1] | 1.43 ± 0.045 | 1.45 ± 0.036 | 1.27 ± 0.026 | 1.4 ± 0.051
33 | QNDFLFSVGESLSVVAG [ECM29] | 2.61 ± 0.065 | 3.08 ± 0.12 | 2.71 ± 0.061 | 2.92 ± 0.11
34 | NLEFNYTKPYPNFEASF [SMC2] | 2.76 ± 0.09 | 2.21 ± 0.1 | 2.74 ± 0.13 | 2.43 ± 0.15
35 | PDGSFEDWSVEELIVDL [RPO26] | 3.42 ± 0.17 | 2.06 ± 0.16 | 2.84 ± 0.081 | 3 ± 0.13
36 | TSLKCLVNRKPIPFEFQ [SNF2] | 2.56 ± 0.054 | 2.21 ± 0.043 | 2.19 ± 0.03 | 2.13 ± 0.053
37 | NYIINDIKKNNKIKLNI [SRB8] | 3.16 ± 0.096 | 3.1 ± 0.16 | 3.35 ± 0.2 | 3.04 ± 0.2
38 | SEKLITKYFEPTSTENN [ECM29] | 2.87 ± 0.076 | 3.09 ± 0.066 | 2.97 ± 0.041 | 3.04 ± 0.035
39 | GVRSNHLRSNILKDLIY [SMC1] | 2.47 ± 0.28 | 2.35 ± 0.16 | 2.82 ± 0.13 | –
40 | INFKSREAIRPGHEMED [AAR2] | 3.33 ± 0.097 | 3.28 ± 0.091 | 3.38 ± 0.084 | 3.44 ± 0.058
41 | SEDLFADGLLQVLVCTA [BRR2] | – | – | 2.25 ± 0.13 | –
42 | FGNSLSNTVNANNYSSN [YDL088C/ASM4] | 2.94 ± 0.084 | 3 ± 0.09 | 3.18 ± 0.056 | 3.08 ± 0.072
43 | KPTEVNDSENNSSEEDK [ITC1] | 2.82 ± 0.058 | 2.74 ± 0.082 | 3.3 ± 0.067 | 3.17 ± 0.052
44 | QGEVGAVFIVPKILIRE [SWP82] | 2.03 ± 0.14 | 2.36 ± 0.21 | 2.13 ± 0.2 | 1.69 ± 0.15
45 | QQQQQQQNPKFLQSQRQ [SWI1] | 2.84 ± 0.048 | 2.82 ± 0.052 | 3.25 ± 0.064 | 2.79 ± 0.045
46 | RDGGLRLGEMERDCVIA [RET1] | 3.15 ± 0.18 | 3.3 ± 0.12 | 3.34 ± 0.095 | 2.54 ± 0.13
47 | ISTGGFMSNDGPTLEKY [SNU114] | 2.22 ± 0.068 | 2.57 ± 0.065 | 2.12 ± 0.053 | 2.31 ± 0.071
48 | GSAITGPVGKECADLWP [RPL23A] | 2.44 ± 0.11 | 2.75 ± 0.085 | 2.64 ± 0.064 | 2.83 ± 0.067
49 | HGVSFKKRAPRAVKEIK [RPL31A] | – | 2.73 ± 0.14 | 3.2 ± 0.11 | 2.97 ± 0.17
50 | NNNNNNNNNNNNDDNGN [MED2] | 3.09 ± 0.038 | 2.94 ± 0.033 | 3.23 ± 0.034 | 3.227 ± 0.029
51 | FVYNKVNETEAILYTKP [YGR119C/NUP57] | 2.76 ± 0.084 | 3.06 ± 0.072 | 2.97 ± 0.07 | 2.74 ± 0.056
52 | AFLALVDAGIALNSMCA [RRP46] | 2.27 ± 0.096 | 2.69 ± 0.11 | 2.59 ± 0.076 | 1.7 ± 0.08
53 | TTDDKSMDTKKKHKQKK [BRN1] | 3.21 ± 0.092 | 3.32 ± 0.09 | 3.27 ± 0.054 | 3.51 ± 0.068
54 | YQCAMGKQAIGAIAYNQ [RET1] | 2.55 ± 0.053 | 2.76 ± 0.06 | 2.65 ± 0.049 | 2.78 ± 0.047
